These are literature values, as cited in paper PMC10878502.

The target in data set [1] is iASPP ANK-SH3 (Homo sapiens) (UniProt Q8WUF5).
For data set [2], the target named is ASPP2 ANK-SH3 (Homo sapiens) (UniProt Q13625).
In data set [3] the target is ASPP2 (Homo sapiens) (UniProt Q13625).
Data set [4] has as its target ASPP1 (Homo sapiens) (UniProt Q96KQ4).

Chain of ASPP2 ANK-SH3 (Homo sapiens) (Q13625 892-1128): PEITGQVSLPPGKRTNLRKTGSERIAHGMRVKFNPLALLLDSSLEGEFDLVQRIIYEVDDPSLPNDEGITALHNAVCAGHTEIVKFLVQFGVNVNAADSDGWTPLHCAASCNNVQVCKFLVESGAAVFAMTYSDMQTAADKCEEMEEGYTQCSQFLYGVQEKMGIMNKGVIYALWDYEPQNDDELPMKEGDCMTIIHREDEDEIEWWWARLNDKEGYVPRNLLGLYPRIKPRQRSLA
Chain of ASPP1 (Homo sapiens) (Q96KQ4 whole entry): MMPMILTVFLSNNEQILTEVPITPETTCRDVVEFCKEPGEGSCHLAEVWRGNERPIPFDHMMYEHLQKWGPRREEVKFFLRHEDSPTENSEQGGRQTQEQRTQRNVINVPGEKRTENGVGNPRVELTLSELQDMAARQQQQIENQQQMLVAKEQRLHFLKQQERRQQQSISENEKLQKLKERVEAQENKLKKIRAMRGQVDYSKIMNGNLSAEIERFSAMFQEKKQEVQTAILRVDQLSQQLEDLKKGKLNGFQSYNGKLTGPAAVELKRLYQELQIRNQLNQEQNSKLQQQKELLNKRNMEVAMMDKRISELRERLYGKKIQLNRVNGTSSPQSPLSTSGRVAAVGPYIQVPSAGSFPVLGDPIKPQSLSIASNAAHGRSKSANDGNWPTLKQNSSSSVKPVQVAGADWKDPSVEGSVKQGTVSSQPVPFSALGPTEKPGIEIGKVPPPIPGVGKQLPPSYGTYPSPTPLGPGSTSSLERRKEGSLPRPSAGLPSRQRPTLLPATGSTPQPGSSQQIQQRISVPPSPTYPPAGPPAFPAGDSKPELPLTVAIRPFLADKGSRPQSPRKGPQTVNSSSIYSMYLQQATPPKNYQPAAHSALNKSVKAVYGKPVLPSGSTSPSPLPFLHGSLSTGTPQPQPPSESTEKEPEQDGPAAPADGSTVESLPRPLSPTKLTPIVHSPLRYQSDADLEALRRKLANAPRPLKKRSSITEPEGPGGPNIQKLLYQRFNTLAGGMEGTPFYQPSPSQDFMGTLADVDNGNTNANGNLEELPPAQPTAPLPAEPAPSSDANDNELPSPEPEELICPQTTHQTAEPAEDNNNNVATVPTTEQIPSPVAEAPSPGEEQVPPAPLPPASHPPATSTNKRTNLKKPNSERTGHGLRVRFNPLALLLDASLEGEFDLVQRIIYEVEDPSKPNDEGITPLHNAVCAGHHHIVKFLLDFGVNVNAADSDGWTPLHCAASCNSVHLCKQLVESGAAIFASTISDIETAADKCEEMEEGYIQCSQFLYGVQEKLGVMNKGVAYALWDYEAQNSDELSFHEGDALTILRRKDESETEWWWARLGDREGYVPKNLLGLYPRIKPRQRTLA
Chain of iASPP ANK-SH3 (Homo sapiens) (Q8WUF5 608-828): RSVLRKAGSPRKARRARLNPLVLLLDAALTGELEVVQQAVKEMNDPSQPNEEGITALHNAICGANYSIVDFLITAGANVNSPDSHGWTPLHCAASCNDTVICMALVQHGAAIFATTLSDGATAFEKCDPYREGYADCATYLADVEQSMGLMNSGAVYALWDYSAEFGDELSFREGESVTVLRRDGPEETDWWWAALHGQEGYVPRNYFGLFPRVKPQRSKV
Chain of ASPP2 (Homo sapiens) (Q13625 whole entry): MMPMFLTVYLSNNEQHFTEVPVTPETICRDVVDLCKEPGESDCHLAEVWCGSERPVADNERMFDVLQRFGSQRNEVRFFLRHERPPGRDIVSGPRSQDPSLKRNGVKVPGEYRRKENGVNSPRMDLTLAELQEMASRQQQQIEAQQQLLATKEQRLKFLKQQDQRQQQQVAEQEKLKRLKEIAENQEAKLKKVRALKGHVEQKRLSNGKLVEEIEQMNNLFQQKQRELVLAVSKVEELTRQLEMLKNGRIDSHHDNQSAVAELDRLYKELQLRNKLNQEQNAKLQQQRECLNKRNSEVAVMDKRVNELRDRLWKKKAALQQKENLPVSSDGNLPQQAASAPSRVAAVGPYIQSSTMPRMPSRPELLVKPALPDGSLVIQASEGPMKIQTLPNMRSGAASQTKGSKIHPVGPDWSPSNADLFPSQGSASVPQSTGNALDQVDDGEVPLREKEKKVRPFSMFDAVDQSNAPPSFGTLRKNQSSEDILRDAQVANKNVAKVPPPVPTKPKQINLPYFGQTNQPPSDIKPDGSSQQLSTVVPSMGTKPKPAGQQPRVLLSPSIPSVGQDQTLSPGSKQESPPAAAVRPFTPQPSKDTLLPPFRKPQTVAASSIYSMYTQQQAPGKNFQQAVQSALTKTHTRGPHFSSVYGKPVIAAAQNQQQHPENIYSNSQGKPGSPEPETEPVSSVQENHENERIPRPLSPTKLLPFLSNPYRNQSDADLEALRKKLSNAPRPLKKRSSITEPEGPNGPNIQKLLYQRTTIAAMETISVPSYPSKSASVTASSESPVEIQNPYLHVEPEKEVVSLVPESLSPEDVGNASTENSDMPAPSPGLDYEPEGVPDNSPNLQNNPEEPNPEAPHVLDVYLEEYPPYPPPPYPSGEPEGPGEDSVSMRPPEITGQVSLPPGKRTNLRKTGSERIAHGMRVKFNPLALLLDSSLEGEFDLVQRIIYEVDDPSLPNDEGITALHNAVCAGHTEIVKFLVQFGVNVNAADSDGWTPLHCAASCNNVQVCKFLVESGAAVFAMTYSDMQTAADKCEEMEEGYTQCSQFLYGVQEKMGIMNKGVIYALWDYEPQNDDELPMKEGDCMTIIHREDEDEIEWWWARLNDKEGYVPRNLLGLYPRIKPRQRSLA

In the case of p53 DBD (from UniProt P04637), the Kd (commonly a measure of binding affinity in units of concentration) in data set [1] was 23.3 nM; in data set [2], 26.4 nM.
As for p53 (from UniProt P04637), the results for the Kd in data set [3] and in data set [4] were 5000 nM and 500 nM, respectively.
